Patent US20260078157A1

Experiments:
[1] = target: human KLB and FGFR1c overexpressed on HEK293 cells (human) (UniProt Q86Z14); assay: cell-based or functional assay
surface of live cells = assay: association and dissociation on the surface of live cells; method not stated

UniProt Q86Z14, sequence (Q86Z14 whole entry, chain 1 of 2): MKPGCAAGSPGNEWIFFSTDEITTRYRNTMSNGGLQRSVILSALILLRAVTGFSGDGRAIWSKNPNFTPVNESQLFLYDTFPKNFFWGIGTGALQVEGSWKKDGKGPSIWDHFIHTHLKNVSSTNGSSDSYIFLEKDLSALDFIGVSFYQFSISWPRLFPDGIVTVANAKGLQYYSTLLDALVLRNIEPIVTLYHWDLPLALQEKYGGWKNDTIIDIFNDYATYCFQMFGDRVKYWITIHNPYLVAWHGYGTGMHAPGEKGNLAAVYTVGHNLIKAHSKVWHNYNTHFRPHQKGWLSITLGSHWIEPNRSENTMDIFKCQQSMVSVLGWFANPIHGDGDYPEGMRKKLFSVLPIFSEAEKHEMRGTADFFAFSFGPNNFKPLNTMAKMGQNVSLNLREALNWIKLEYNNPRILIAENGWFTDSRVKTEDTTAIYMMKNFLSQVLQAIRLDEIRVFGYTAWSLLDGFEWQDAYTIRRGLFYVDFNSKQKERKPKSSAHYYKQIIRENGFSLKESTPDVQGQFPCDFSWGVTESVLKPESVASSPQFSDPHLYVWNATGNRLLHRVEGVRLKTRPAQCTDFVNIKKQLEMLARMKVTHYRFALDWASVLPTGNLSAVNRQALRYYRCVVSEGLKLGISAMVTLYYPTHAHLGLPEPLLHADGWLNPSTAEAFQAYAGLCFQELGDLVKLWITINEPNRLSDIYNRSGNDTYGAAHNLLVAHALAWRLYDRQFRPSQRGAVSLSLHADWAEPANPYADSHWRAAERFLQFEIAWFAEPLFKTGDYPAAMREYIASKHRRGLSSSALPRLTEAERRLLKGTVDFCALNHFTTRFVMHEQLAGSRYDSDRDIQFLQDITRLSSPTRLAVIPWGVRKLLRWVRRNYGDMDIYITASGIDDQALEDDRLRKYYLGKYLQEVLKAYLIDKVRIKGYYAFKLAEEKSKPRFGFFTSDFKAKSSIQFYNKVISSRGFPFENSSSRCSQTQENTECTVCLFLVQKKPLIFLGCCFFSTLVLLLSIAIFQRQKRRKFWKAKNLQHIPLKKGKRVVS
UniProt Q86Z14, sequence (P11362 22-822, chain 2 of 2, further chain): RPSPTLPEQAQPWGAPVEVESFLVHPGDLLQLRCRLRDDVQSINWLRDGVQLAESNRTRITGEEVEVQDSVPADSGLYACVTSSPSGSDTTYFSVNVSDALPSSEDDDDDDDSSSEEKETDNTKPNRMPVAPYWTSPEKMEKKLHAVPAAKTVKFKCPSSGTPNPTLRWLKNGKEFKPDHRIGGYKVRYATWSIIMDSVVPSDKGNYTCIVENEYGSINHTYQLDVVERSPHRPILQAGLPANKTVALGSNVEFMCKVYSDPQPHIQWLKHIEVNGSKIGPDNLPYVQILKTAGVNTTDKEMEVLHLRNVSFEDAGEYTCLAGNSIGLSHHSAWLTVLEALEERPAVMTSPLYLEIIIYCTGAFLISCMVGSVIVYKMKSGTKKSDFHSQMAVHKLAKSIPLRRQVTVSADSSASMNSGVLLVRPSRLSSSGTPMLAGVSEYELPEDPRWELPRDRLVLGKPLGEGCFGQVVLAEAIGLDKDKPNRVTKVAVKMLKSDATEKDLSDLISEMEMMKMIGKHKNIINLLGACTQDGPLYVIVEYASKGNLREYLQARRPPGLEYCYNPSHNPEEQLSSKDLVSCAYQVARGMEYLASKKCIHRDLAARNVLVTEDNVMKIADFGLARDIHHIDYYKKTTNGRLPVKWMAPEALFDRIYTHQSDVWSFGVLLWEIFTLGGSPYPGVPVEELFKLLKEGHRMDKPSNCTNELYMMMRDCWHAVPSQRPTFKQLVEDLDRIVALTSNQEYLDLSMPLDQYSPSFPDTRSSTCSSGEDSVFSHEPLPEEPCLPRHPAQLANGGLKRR

cell-based potency assay, Elk1 luciferase reporter in HEK293 cells overexpressing human KLB and FGFR1c; potency relative to ¾ EFX [1]: 2 fold
fold more stable interaction, compared to either free FGF21 or a single FGF21 domain linked to an Fc domain (surface of live cells): > 100 fold
Substance: Efruxifermin (EFX) (Fc fusion)
